# Measured values as given in article PMC3378860.
# Tests used:
# Experiment in all cases: EMSA
# [1] = system: I-S-I complex (ISW2 with Snf2 ATPase domain) ((yeast))
# ISW2 complex ((yeast)) = system: ISW2 complex ((yeast))
# [2] = system: SWI/SNF complex ((yeast))
substance,measurement,setting,value
217 bp DNA,Kd,[1],31 nM
same,Kd,ISW2 complex ((yeast)),25 nM
same,Kd,[2],20 nM
